Experimental data taken from patent publication US11306156.
pKd: −log10 of the molar value. One block for each substance: values may come before it.

Key:
[1] = target: tissue factor (TF) antigen (human (from the antibody's name 'anti-human tissue factor'; not stated for the antigen lot in the assay)) (UniProt P13726); assay: SPR (ProteOn XPR36), Fab captured on anti-penta His, TF analyte; against wild-type D3H44 Fab; batch C (+)
[2] = target: tissue factor (TF) antigen (human (from the antibody's name 'anti-human tissue factor'; not stated for the antigen lot in the assay)) (UniProt P13726); assay: SPR (ProteOn XPR36): Fab captured via His tag on anti-penta His surface, TF injected, 1:1 fit; batch C (+)
[3] = target: tissue factor (TF) antigen (UniProt P13726); assay: SPR (ProteOn XPR36), Fab captured on anti-penta His surface, TF injected, 1:1 fit; batch C ('+')
Sequence of tissue factor (TF) antigen (P13726 33-251 limits assumed): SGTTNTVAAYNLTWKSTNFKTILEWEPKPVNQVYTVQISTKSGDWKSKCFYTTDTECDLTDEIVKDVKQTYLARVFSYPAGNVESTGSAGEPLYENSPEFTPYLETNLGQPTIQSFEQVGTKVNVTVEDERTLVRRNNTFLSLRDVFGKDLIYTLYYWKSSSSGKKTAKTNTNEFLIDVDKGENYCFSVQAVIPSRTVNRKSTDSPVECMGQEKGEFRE

[4] = target: tissue factor (TF) antigen (UniProt P13726); assay: SPR (ProteOn XPR36), Fab captured on anti-penta His surface, TF injected, 1:1 fit; batch C ('+'); reference wild-type D3H44 Fab
[5] = target: tissue factor (TF) antigen (UniProt P13726); assay: vs wild-type D3H44 Fab (estimated wt KD […]); SPR; estimated (*) from Fab differing only in L chain tag
[6] = target: tissue factor (TF) antigen (UniProt P13726); assay: SPR, Fab captured on anti-penta-His, TF as analyte, 1:1 fit; estimated (*) from Fab differing only in L chain tag
[7] = target: tissue factor (TF) antigen (UniProt P13726); assay: SPR (ProteOn), Fab captured via anti-penta-His, TF injected, 1:1 fit
[8] = target: tissue factor (TF) antigen (UniProt P13726); assay: SPR (ProteOn), Fab captured via anti-penta-His, TF injected, 1:1 fit; reference wild-type D3H44 Fab
[9] = target: tissue factor (TF) antigen (UniProt P13726); assay: SPR, Fab captured on anti-penta-His, TF as analyte, 1:1 fit
[10] = target: tissue factor (TF) antigen (UniProt P13726); assay: SPR, Fab captured on anti-penta-His, TF as analyte; against wild-type D3H44 Fab
[11] = target: tissue factor (TF) antigen (UniProt P13726); assay: SPR, ProteOn XPR36; His-tagged Fab captured on anti-penta-His, TF injected; 1:1 fit; batch C (+)
[12] = target: tissue factor (TF) antigen (UniProt P13726); assay: SPR as for KD; reference: wild-type D3H44 Fab; batch C (+)
[13] = target: D3H44 light chain S131K (Kabat), N-terminal HA or FLAG tag; assay: LCCA co-expression, competing light chain m37, L1:L2 DNA 1:3 normalized to 1:1, SPR tag read-out
Sequence of D3H44 light chain S131K (Kabat), N-terminal HA or FLAG tag (light, as listed by the source): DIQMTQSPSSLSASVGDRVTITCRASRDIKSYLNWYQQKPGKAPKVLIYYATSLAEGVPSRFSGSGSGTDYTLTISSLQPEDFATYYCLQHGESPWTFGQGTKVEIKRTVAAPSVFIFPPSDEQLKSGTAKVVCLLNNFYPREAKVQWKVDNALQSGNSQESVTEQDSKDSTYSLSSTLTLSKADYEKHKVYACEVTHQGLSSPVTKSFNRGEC

[14] = target: D3H44 light chain Q124E_T180E (Kabat), N-terminal HA or FLAG tag; assay: LCCA co-expression, competing light chain m36, L1:L2 DNA 1:3 normalized to 1:1, SPR tag read-out
Sequence of D3H44 light chain Q124E_T180E (Kabat), N-terminal HA or FLAG tag (light, as listed by the source): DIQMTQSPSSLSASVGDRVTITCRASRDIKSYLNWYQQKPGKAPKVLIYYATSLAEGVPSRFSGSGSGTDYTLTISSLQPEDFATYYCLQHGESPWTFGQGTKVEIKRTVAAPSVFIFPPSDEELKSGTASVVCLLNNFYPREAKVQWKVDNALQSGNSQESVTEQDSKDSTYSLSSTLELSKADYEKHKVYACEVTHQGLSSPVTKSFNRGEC

[15] = target: tissue factor (TF) antigen (UniProt P13726); assay: SPR (ProteOn XPR36), Fab captured on anti-penta His surface, TF injected, 1:1 fit
[16] = target: tissue factor (TF) antigen (UniProt P13726); assay: SPR (ProteOn XPR36), Fab captured on anti-penta His surface, TF injected, 1:1 fit; reference wild-type D3H44 Fab

Sequence of tissue factor (TF) antigen (human (from the antibody's name 'anti-human tissue factor'; not stated for the antigen lot in the assay)) (P13726 33-251 limits assumed): as the sequence (P13726 33-251 limits assumed) above

Substance: D3H44 Fab heterodimer, H1 Q39E_K145T_Q179E / L1 Q38R_S131K (H1L1 Fab of LCCA set 9814)
- Change in median values of KD of h1l1 Fab heterodimer compared to wild type (-(log(KD design)-log(KD wt))) [1]: -0.01
- pKd [2]: 9.80

Substance: H1L1 Fab heterodimer of LCCA set 9623 (D3H44 Fab, H1 L143E_K145T_Q179D, L1 Q124R_Q160K_T178R; L chain tag differs from the measured Fab)
- change in median KD compared to wild type, -(log(KD design)-log(KD wt)) [5]: 0.39
- pKd [6]: 10.22

Substance: D3H44 Fab heterodimer, H1 L45P_L143E_K145T_Q179E / L1 P44F_Q124R_Q160K_T178R (H1L1 Fab of LCCA Set # 9754)
- pKd [9]: 9.52
- change in median KD compared to wild type, -(log(KD design)-log(KD wt)) [10]: -0.28

Substance: D3H44 Fab heterodimer, H1L1 of LCCA Sets # 9807 and 9808 (H1 Q179R; L1 Q124E_S176L_T180E)
- pKd [11]: 9.77
- change in median KD compared to wild type, -(log(KD design)-log(KD wt)) [12]: -0.02

Substance: D3H44 Fab heavy chain S186R (Kabat), C-terminal ABD2-His6 tag
- H2L2:H2L1 normalized median ratio [13]: 4 of 100
- H2L2:H2L1 normalized median ratio [14]: 96 of 100

Substance: D3H44 Fab heterodimer, H1 Q39E_L143E_K145T_H172R / L1 Q38R_Q124R_Q160K_T178R (H1L1 Fab of LCCA set 9818)
- Change in median values of KD of h1l1 Fab heterodimer compared to wild type (-(log(KD design)-log(KD wt))) [1]: -0.07
- pKd [2]: 9.74

Second part, the substance after the results:

- pKd [3]: 9.92
- Change in median values of KD of h1l1 Fab heterodimer compared to wild type (-(log(KD design)-log(KD wt))) [4]: 0.13
Substance: D3H44 Fab heterodimer, H1 Q179K / L1 Q124E_S131T_T178F_T180E (H1L1 Fab of LCCA Sets # 9778, 9777)

- pKd [3]: 9.82
- Change in median values of KD of h1l1 Fab heterodimer compared to wild type (-(log(KD design)-log(KD wt))) [4]: 0.02
Substance: D3H44 Fab heterodimer, H1 S186K / L1 Q124E_T178E_T180E (H1L1 Fab of LCCA Set # 9852)

- change in median KD compared to wild type, -(log(KD design)-log(KD wt)) [5]: 0
- pKd [6]: 9.80
Substance: H1L1 Fab heterodimer of LCCA sets 9140, 9142, 9144 and 9146 (D3H44 Fab, H1 L124E_K145T_Q179E, L1 S131K_V133G_S176R; L chain tag differs from the measured Fab)

- pKd [7]: 9.64
- change in median KD compared to wild type, -(log(KD design)-log(KD wt)) [8]: -0.16
Substance: D3H44 Fab heterodimer (H1L1) of LCCA Sets # 9419, 9420, 9423, 9425, 9426: H1 L124R_Q179K, L1 V133G_S176D_T178E_T180E

- change in median KD compared to wild type, -(log(KD design)-log(KD wt)) [5]: 0.02
- pKd [6]: 9.82
Substance: H1L1 Fab heterodimer of LCCA set 9651 (D3H44 Fab, H1 L143E_K145T_Q179E, L1 Q124R_Q160K_T178R; L chain tag differs from the measured Fab)

- change in median KD compared to wild type, -(log(KD design)-log(KD wt)) [5]: -0.23
- pKd [6]: 9.57
Substance: H1L1 Fab heterodimer of LCCA sets 9663 and 9666 (D3H44 Fab, H1 L143E_K145T_Q179E, L1 Q124R_T178R; L chain tag differs from the measured Fab)

- pKd [15]: 9.59
- Change in median values of KD of h1l1 Fab heterodimer compared to wild type (-(log(KD design)-log(KD wt))) [16]: -0.23
Substance: D3H44 Fab heterodimer, H1 L124R_S186K / L1 Q124E_V133G_S176D_T178D_T180E (H1L1 Fab of LCCA Sets # 9451, 9459, 9460, 9461, 9449)

- pKd [15]: 9.66
- Change in median values of KD of h1l1 Fab heterodimer compared to wild type (-(log(KD design)-log(KD wt))) [16]: -0.15
Substance: D3H44 Fab heterodimer, H1 L124R_Q179K / L1 Q124E_V133G_S176D_T178E_T180E (H1L1 Fab of LCCA Set # 9388)
